Data taken from publication PMC8482512, “Aim32 is a dual-localized 2Fe-2S mitochondrial protein that functions in redox quality control” (The Journal of Biological Chemistry, 2021).
One block for each molecule: values may come before it.

Tests used:
[1] = biological target: Erv1 with a C-terminal histidine tag (Erv1-His) (S. cerevisiae) (UniProt P27882); experiment: pull-down; mitochondria of His-tagged strains solubilized in 1% digitonin, 500 μg lysate incubated with Ni2+-agarose beads, washed, eluted, immunoblot; untagged WT strain as control
Sequence of Erv1 with a C-terminal histidine tag (Erv1-His) (S. cerevisiae) (P27882 whole entry): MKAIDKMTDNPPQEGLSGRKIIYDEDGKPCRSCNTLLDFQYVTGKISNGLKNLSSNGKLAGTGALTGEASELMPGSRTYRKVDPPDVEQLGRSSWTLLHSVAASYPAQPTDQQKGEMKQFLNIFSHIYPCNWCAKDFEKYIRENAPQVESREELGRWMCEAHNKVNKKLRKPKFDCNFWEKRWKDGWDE

[2] = biological target: Osm1 with a C-terminal histidine tag (Osm1-His) (S. cerevisiae) (UniProt P21375); experiment: as above
Sequence of Osm1 with a C-terminal histidine tag (Osm1-His) (S. cerevisiae) (P21375 33-501): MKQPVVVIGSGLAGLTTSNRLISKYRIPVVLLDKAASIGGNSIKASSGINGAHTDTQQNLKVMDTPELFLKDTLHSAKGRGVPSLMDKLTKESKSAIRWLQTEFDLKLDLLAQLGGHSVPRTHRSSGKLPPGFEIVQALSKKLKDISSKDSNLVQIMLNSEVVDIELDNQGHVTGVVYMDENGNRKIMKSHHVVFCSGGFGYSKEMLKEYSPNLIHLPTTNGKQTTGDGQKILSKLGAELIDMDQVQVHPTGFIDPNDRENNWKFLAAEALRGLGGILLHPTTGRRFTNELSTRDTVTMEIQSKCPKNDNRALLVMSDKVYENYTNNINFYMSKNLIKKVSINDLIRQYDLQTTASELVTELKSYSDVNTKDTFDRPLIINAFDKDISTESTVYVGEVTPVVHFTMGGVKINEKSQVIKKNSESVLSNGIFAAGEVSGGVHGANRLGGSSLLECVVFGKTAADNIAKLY

[3] = biological target: T1, Aim32 with a C-terminal FLAG tag (Aim32-FLAG) (S. cerevisiae, UniProt Q04689 1-311); experiment: co-IP; mitochondrial lysate of Δaim32 [pAIM32-FLAG], ANTI-FLAG M2 affinity gel (FLAG-resin), immunoblot with the indicated antibodies; conditions: partners not purified
T1 construct: Aim32, S. cerevisiae, PCR-amplified from genomic DNA of strain GA74-1A; also called pAIM32-FLAG; pAIM32; source: S. cerevisiae Δaim32 strain transformed with [pAIM32-FLAG]; (GPD promoter), mitochondrial lysate; not shown: 3XFLAG, C-terminal, kept
T1 sequence (looked up): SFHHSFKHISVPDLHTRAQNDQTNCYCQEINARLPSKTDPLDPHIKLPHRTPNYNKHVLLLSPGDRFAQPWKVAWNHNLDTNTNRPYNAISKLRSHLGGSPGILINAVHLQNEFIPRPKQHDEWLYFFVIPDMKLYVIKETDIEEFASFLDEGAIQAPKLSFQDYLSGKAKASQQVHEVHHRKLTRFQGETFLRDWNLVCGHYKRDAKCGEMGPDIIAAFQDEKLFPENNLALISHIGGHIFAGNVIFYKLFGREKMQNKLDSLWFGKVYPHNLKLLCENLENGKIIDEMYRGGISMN

Molecule: Altered inheritance of mitochondria 32 (Aim32) (from UniProt Q04689 1-311) (natural protein)
fraction copurified [1]: 10%
fraction copurified [2]: 5%

B1: Sod2 (enzyme, UniProt P00447 27-233, looked up)
chain: KVTLPDLKWDFGALEPYISGQINELHYTKHHQTYVNGFNTAVDQFQELSDLLAKEPSPANARKMIAIQQNIKFHGGGFTNHCLFWENLAPESQGGGEPPTGALAKAIDEQFGSLDELIKLTNTKLAGVQGSGWAFIVKNLSNGGKLDVVQTYNQDTVTGPLVPLVAIDAWEHAYYLQYQNKKADYFKAIWNVVNWKEASRRFDAGKI
notes: Sod2, matrix antioxidant (superoxide dismutase), S. cerevisiae; source: endogenous, S. cerevisiae mitochondrial lysate
fraction copurified [3]: ~10%

B4: Tim17 (natural protein, UniProt P39515 1-158, looked up)
chain: MSADHSRDPCPIVILNDFGGAFAMGAIGGVVWHGIKGFRNSPLGERGSGAMSAIKARAPVLGGNFGVWGGLFSTFDCAVKAVRKREDPWNAIIAGFFTGGALAVRGGWRHTRNSSITCACLLGVIEGVGLMFQRYAAWQAKPMAPPLPEAPSSQPLQA
notes: Tim17, component of the TIM23 translocon, S. cerevisiae; source: endogenous, S. cerevisiae mitochondrial lysate
fraction copurified [3]: ~10%

Results, then the molecule that gave them:

fraction copurified [3]: ~10%
B2: Tim23 (natural protein, UniProt P32897 1-222, looked up)
chain: MSWLFGDKTPTDDANAAVGGQDTTKPKELSLKQSLGFEPNINNIISGPGGMHVDTARLHPLAGLDKGVEYLDLEEEQLSSLEGSQGLIPSRGWTDDLCYGTGAVYLLGLGIGGFSGMMQGLQNIPPNSPGKLQLNTVLNHITKRGPFLGNNAGILALSYNIINSTIDALRGKHDTAGSIGAGALTGALFKSSKGLKPMGYSSAMVAAACAVWCSVKKRLLEK
notes: Tim23, component of the TIM23 translocon, S. cerevisiae; source: endogenous, S. cerevisiae mitochondrial lysate

fraction copurified [3]: ~10%
B3: Tim50 (natural protein, UniProt Q02776 44-476, looked up)
chain: QKETKDDKPKSILTDDMLFKAGVDVDEKGQGKNEETSGEGGEDKNEPSSKSEKSRRKRQTSTDIKREKYANWFYIFSLSALTGTAIYMARDWEPQESEELKKDIDNGYTLSLMYKRFKARFNSMFTYFQEPPFPDLLPPPPPPPYQRPLTLVITLEDFLVHSEWSQKHGWRTAKRPGADYFLGYLSQYYEIVLFSSNYMMYSDKIAEKLDPIHAFVSYNLFKEHCVYKDGVHIKDLSKLNRDLSKVIIIDTDPNSYKLQPENAIPMEPWNGEADDKLVRLIPFLEYLATQQTKDVRPILNSFEDKKNLAEEFDHRVKKLKDKFYGDHKSGGNWAMTALGLGNSLGGSTKFPLDLIHEEGQKNYLMFMKMIEEEKEKIRIQQEQMGGQTFTLKDYVEGNLPSPEEQMKIQLEKQKEVDALFEEEKKKKKIAESK
notes: Tim50, component of the TIM23 translocon, S. cerevisiae; source: endogenous, S. cerevisiae mitochondrial lysate

fraction copurified [3]: ~10%
B5: Tim22 (natural protein, UniProt Q12328 1-207, looked up)
chain: MVYTGFGLEQISPAQKKPYNELTPEEQGERGAEMIMNFMTSCPGKSVVSGVTGFALGGVLGLFMASMAYDTPLHTPTPANTAATATAGNIGVGGISRTVQQISDLPFRQQMKLQFTDMGKKSYSSAKNFGYIGMIYAGVECVIESLRAKNDIYNGVTAGFFTGAGLAYKAGPQAALMGGAGFAAFSAAIDLYMKSEDGRPPQNDFKE
notes: Tim22, component of the TIM22 translocon, S. cerevisiae; source: endogenous, S. cerevisiae mitochondrial lysate
